In publication PMC8248824 (Acta Crystallographica. Section F, Structural Biology …, 2021):
Where a chain is given by its changes, count along the chain named. In names and notes the source's numbering stands.

T1: HER3 extracellular domain 4, biotinylated (N-terminal AviTag and His6 tag) (human, biotin (in vitro biotinylation, AviTag))
T1 construct: HER3 (ErbB3) extracellular domain 4, human, residues 500-643 of UniProt entry P21860; also called HER3d4; HER3 domain 4; source: Sf9 insect cells (baculovirus), secreted, purified (IMAC, Superdex 75), biotinylated in vitro; not shown: AviTag, N-terminal, kept
T1 chain: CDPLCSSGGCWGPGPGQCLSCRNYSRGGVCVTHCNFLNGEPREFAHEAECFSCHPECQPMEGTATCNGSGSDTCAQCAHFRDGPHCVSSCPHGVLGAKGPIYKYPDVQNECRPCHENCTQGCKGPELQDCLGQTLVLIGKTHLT

T2: biotinylated HER3 domain 4 with N-terminal AviTag and His6 tag (Homo sapiens, biotin (in vitro biotinylation of the AviTag))
T2 construct: also called biotinylated HER3d4; HER3d4; source: Sf9 (baculovirus), secreted, purified (IMAC, in vitro biotinylation, Superdex 75 SEC); not shown: AviTag, N-terminal, kept
T2 chain: T1 chain

T3: HER3 extracellular domain 4 (HER3d4) without AviTag, deglycosylated (Homo sapiens)
T3 construct: PNGase F treatment may have turned glycosylated Asn into Asp (surmise); also called HER3 domain 4; ErbB3 domain 4; source: Sf9 (baculovirus), secreted, purified (IMAC), deglycosylated with PNGase F, ConA Sepharose
T3 chain: T1 chain

B1: DARPin D6 (designed binder)
chain: GSDLGKKLLEAARAGQDDEVRILMANGADVNAQDVSGQTPLHLAAIWGHLEIVEVLLKTGADVNAWDHWGNTPLHLAAWQGHLEIVEVLLKAGTDVNAKDSEGFTPLHLAAWWGHLEIVEVLLKHGADVNAQDKFGKTPFDLAIDNGNEDIAEVLQKAAKLN
notes: N3C DARPin selected by ribosome display; source: E. coli XL1 Blue, purified (HisPur Cobalt Spin Plates)
B2: DARPin D8 (designed binder)
chain: B1 chain with T94A
notes: as for B1
B3: DARPin D7 (designed binder)
chain: GSDLGKKLLEATRAGQDDEVRILMANGADVNAQDVSGQTPLHLAAIWGHLEIVEVLLKTGADVNAQDWFGETPLHLAAVQGHLEIVEVLLKTGADVNAWDAYGHTPLHLAANYGHLEIVEVLLKHGADVNAQDKFGKTPFDLAIDNGNEDIAEVLQKAAKLN
notes: as for B1
B4: DARPin D5 from the pQiq_FLAG expression vector (N-terminal His6 tag, C-terminal FLAG tag) (designed binder)
chain: DLGKKLLEAARAGQDDEVRILMANGADVNAFDHNGSTPLHLAAAIGHLEIVEVLLKYGADVNAEDNWGNTPLHQAAWVGHLEIVEVLLKNGADVNAQDKFGKTAFDISIDNGNEDLAEILQKLN
notes: DARPin D5 itself, as printed within the crystallisation construct (from Asp13); source: E. coli XL1 Blue, purified (HisPur Cobalt Spin Plates)
B5: DARPin D5 (designed ankyrin-repeat protein D5), His6 tag removed by 3C protease (designed binder)
chain: GPGSDLGKKLLEAARAGQDDEVRILMANGADVNAFDHNGSTPLHLAAAIGHLEIVEVLLKYGADVNAEDNWGNTPLHQAAWVGHLEIVEVLLKNGADVNAQDKFGKTAFDISIDNGNEDLAEILQKLN
notes: N2C DARPin selected by ribosome display; Carries the framework mutation L86Q against the DARPin consensus; source: E. coli XL1 Blue, purified (Ni-NTA, 3C protease cleavage, reverse Ni-NTA); not shown: His6, N-terminal, cleaved
B6: DARPin D4 (designed binder)
chain: GSDLGKKLLEAARAGQDDEVRILMANGADVNAFDHNGSTPLHLAAAIGHLEIVEVLLKYGADVNAEDNWGNTPLHQAAWVGHREIVEVLLKYGADVNAQDKFGKTAFDISIDNGNEDLAEILQKLN
notes: N2C DARPin selected by ribosome display; source: E. coli XL1 Blue, purified (HisPur Cobalt Spin Plates)
B7: DARPin D2 (designed binder)
chain: B6 chain with I22V
notes: as for B6
B8: DARPin D5 (His6- and FLAG-tagged form used for characterisation) (designed binder)
chain: B6 chain with R83L, Y92N
notes: as for B6
B9: DARPin D3 (designed binder)
chain: B6 chain with N36S
notes: as for B6
B10: DARPin D1 (designed binder)
chain: B6 chain with A25T, A94V
notes: as for B6

Columns and labels:
[1] = target: T1, HER3 extracellular domain 4, …; experiment: SPR; ProteOn XPR36, NeutrAvidin NLC chip; biotinylated HER3d4 immobilised; monomeric DARPins injected at 2.5, 7.5, 22, 67 and 200 nM (duplicates), 60 µl/min, 5 min association, 5 min dissociation; PBS with 0.005% Tween-20; kinetic titration model; details: both partners purified
[2] = target: biotinylated HER3 domain 4 with N-terminal AviTag and His6 tag (Homo sapiens); experiment: SPR; ProteOn XPR36, biotinylated HER3d4 on a NeutrAvidin NLC chip; monomeric DARPins injected at 2.5, 7.5, 22, 67 and 200 nM, 60 ul/min; PBS with 0.005% Tween-20; kinetic titration model
[3] = target: T2, biotinylated HER3 domain 4 with …; experiment: as above; details: both partners purified
[4] = target: T3, HER3 extracellular domain 4 (HER3d4) …; experiment: crystal structure; DARPin D5 incubated with HER3d4 at a 1:1.2 molar ratio, complex purified by gel filtration in PBS; sitting drop, 277 K; two crystal forms, P2(1) at 2.3 A and P2(1)2(1)2(1) at 2.0 A; details: both partners purified

Binder	koff [1] [s⁻¹]	kon [1] [M⁻¹ s⁻¹]	Kd [2] [nM]	Kd [1] [nM]	binding result [3]	binding result [4]
B1	0.000623	138000	4.5			
B2	0.000791	158000		5		
B3	0.00147	196000		7.5		
B4					binds	
B5						binds
B6	0.00669	1.51e+06		4.4		
B7	0.00783	1.37e+06		5.7		
B8	0.00856	1.25e+06		6.9		
B9	0.0109	1.35e+06	8.1			
B10	0.00932	1.23e+06		7.6		
